The results in this text go back to PMC5290278 (Nature Communications, 2017).

The target of the assay is T1, GST-NPHP4-C2^650-839 (human, UniProt O75161 650-839).
T1 construct: central C2 domain of NPHP4, residues 650-839; also called GST-N4-C2^2650-839 (as printed in the legend); GST fused to the central C2 domain of NPHP4; source: bacterially purified
T1 sequence (looked up): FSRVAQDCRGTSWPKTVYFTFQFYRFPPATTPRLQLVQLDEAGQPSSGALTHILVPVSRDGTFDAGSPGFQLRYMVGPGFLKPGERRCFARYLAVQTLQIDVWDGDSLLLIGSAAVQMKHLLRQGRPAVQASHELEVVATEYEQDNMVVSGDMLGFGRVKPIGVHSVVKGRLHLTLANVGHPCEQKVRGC
Description: pull-down; GFP-KIF13B-C2^861-1,000 held on anti-GFP immunocomplexes, washed two times in high salt buffer (600 mM NaCl, 10 mM Tris-HCl, 0.1% NP-40); bacterially purified GST-NPHP4-C2^650-839 (500 ng/µl) added in modified EBC buffer (140 mM NaCl, 10 mM Tris-HCl, 5 mM EDTA, 0.5% NP-40); standard GFP IP. As to conditions: both partners purified.

B1: GFP-KIF13B-C2^861-1,000 (domain or fragment, human, UniProt Q9NQT8 861-1000, looked up)
chain: KETQENKLVCMVKILQATGLPQHLSHFVFCKYSFWDQQEPVIVAPEVDTSSSSVSKEPHCMVVFDHCNEFSVNITEDFIEHLSEGALAIEVYGHKINDPRKNPALWDLGIIQAKTRSLRDRWSEVTRKLEFWVQILEQNE
notes: made by PCR from the GFP-KIF13B plasmid and cloned into pEGFP-C1; also called KIF13B RPGRIP1N-C2 type domain; source: HEK293T, transfected, in lysate; also immunoisolated on anti-GFP beads with high salt washes
Take B1: the binding result is listed as “binds”.
